{
  "source": "patent US20230157952A1",
  "about": "“METHOD FOR IMPROVING THE STABILITY OF A PHARMACEUTICAL COMPOSITION COMPRISING A HIGH PENETRATION DRUG, AND THE PHARMACEUTICAL COMPOSITION OBTAINED THEREFROM” (Techfields Inc., priority 2020, published 2023)",
  "key": {"[1]": {"experiment": "Effect of temperature (and pH) on the stability of the solution (purity)", "assay_type": "physicochemical", "conditions": "for Stability of the solution at a temperature higher than 40° C. and a pH lower than 3 or greater than 6: 7% solution in water"}, "[2]": {"experiment": "Stability of the pure HPDs (dry solid) at 25° C./RH 60%", "assay_type": "physicochemical", "conditions": "for Purity: pure HPD, 25° C./RH 60%"}, "[3]": {"conditions": "5% solution with 1 equivalent sodium acetate in 25% ethanol, pH 4.49-4.51"}, "[4]": {"conditions": "pure HPD at 25° C./RH 60%, in % (unit assumed)"}},
  "note": "Non-standard residues stand in square brackets, D forms with d. *: point of attachment. Arg(NO2) = N=C(NCCC[C@H](N)C(=O)O)N[N+](=O)[O-]; OiPr = CC(C)O*",
  "data": [
    {"compound": "CCN(CC)CCOC(=O)C(C)c1ccc(-c2ccccc2)c(F)c1.Cl", "note": "(stereo not shown) [B-1-1, 2-(diethylamino)ethyl 2-(2-fluoro-4-biphenyl)propionate•HCl salt]", "values": [
      {"measurement": "Stability of the solution at a temperature higher than 40° C. and a pH lower than 3 or greater than 6", "setting": "[1]", "result": "not stable"},
      {"measurement": "Purity", "setting": "[2]; 6 month", "result": "98.1 ± 0.1"},
      {"measurement": "Purity", "setting": "[2]; 18 month", "result": "98.1 ± 0.1"},
      {"measurement": "Purity", "setting": "[2]; 24 month", "result": "98.0 ± 0.1"}
    ]},
    {"compound": "CCN(CC)CCOC(=O)[C@@H](C)c1ccc(-c2ccccc2)c(F)c1.Cl", "note": "[B-1-2, 2-(diethylamino)ethyl (S)-2-(2-fluoro-4-biphenyl)propionate•HCl salt]", "values": [
      {"measurement": "Purity", "setting": "[2]; 3 month", "result": "98.6 ± 0.1"},
      {"measurement": "Purity", "setting": "[2]; Day 0", "result": "98.7 ± 0.2"}
    ]},
    {"compound": "CCN(CC)CCOC(=O)[C@H](C)c1ccc(-c2ccccc2)c(F)c1.Cl", "note": "[B-1-3, 2-(diethylamino)ethyl (R)-2-(2-fluoro-4-biphenyl)propionate•HCl salt]", "values": [
      {"measurement": "Purity", "setting": "[2]; 18 month", "result": "98.1 ± 0.2"},
      {"measurement": "Purity", "setting": "[2]; 24 month", "result": "98.0 ± 0.1"}
    ]},
    {"compound": "Br.CCN(CC)CCOC(=O)C(C)c1ccc(-c2ccccc2)c(F)c1", "note": "(stereo not shown) [B-1-4, 2-(diethylamino)ethyl 2-(2-fluoro-4-biphenyl)propionate•HBr salt]", "values": [
      {"measurement": "Purity", "setting": "[2]; 18 month", "result": "98.1 ± 0.1"},
      {"measurement": "Purity", "setting": "[2]; 24 month", "result": "97.9 ± 0.1"},
      {"measurement": "Purity", "setting": "[2]; Day 0", "result": "98.6 ± 0.2"}
    ]},
    {"compound": "CCN(CC)CCOC(=O)[C@@H](C)c1ccc(CC(C)C)cc1.Cl", "note": "[C-1-2, 2-(diethylamino)ethyl (S)-2-(p-isobutylphenyl)propionate•HCl salt]", "values": [
      {"measurement": "Purity", "setting": "[2]; 24 month", "result": "98.0 ± 0.5"}
    ]},
    {"compound": "CCN(CC)CCOC(=O)[C@H](C)c1ccc(CC(C)C)cc1.Cl", "note": "[C-1-3, 2-(diethylamino)ethyl (R)-2-(p-isobutylphenyl)propionate•HCl salt]", "values": [
      {"measurement": "Stability of the solution at a temperature higher than 40° C. and a pH lower than 3 or greater than 6", "setting": "[1]", "result": "not stable"},
      {"measurement": "Purity", "setting": "[2]; 6 month", "result": "98.1 ± 0.3"},
      {"measurement": "Purity", "setting": "[2]; 9 month", "result": "98.0 ± 0.1"},
      {"measurement": "Purity", "setting": "[2]; 12 month", "result": "98.0 ± 0.3"},
      {"measurement": "Purity", "setting": "[2]; 18 month", "result": "97.9 ± 0.3"},
      {"measurement": "Purity", "setting": "[2]; 24 month", "result": "97.8 ± 0.2"}
    ]},
    {"compound": "H-Ala-Pro-Gly-Pro-Arg(NO2)—OCH(CH3)2•HCl (H-APGP[Arg(NO2)]-OiPr; also: HCl salt) [T-2]", "values": [
      {"measurement": "Purity (%) at day 30 (60° C.)", "setting": "[1]; [3]", "result": "32.8 ± 0.2", "unit": "%"},
      {"measurement": "Purity (%) at day 90 (60° C.)", "setting": "[1]; [3]", "result": 0, "unit": "%"},
      {"measurement": "Purity (%) at day 180 (60° C.)", "setting": "[1]; [3]", "result": 0, "unit": "%"},
      {"measurement": "Purity (%) at day 360 (60° C.)", "setting": "[1]; [3]", "result": 0, "unit": "%"},
      {"measurement": "Purity(%) at day 0", "setting": "[1]; [3]", "result": "98.9 ± 0.2", "unit": "%"},
      {"measurement": "Purity(%) at day 30 (5° C.)", "setting": "[1]; [3]", "result": "98.8 ± 0.2", "unit": "%"},
      {"measurement": "Purity(%) at day 30 (25° C.)", "setting": "[1]; [3]", "result": "97.8 ± 0.3", "unit": "%"},
      {"measurement": "Purity(%) at day 30 (40° C.)", "setting": "[1]; [3]", "result": "71.3 ± 0.2", "unit": "%"},
      {"measurement": "Purity(%) at day 90 (5° C.)", "setting": "[1]; [3]", "result": "98.5 ± 0.3", "unit": "%"},
      {"measurement": "Purity(%) at day 90 (25° C.)", "setting": "[1]; [3]", "result": "97.0 ± 0.2", "unit": "%"},
      {"measurement": "Purity(%) at day 90 (40° C.)", "setting": "[1]; [3]", "result": "33.6 ± 0.2", "unit": "%"},
      {"measurement": "Purity(%) at day 180 (5° C.)", "setting": "[1]; [3]", "result": "97.8 ± 0.2", "unit": "%"},
      {"measurement": "Purity(%) at day 180 (25° C.)", "setting": "[1]; [3]", "result": "95.2 ± 0.3", "unit": "%"},
      {"measurement": "Purity(%) at day 180 (40° C.)", "setting": "[1]; [3]", "result": "13.6 ± 0.2", "unit": "%"},
      {"measurement": "Purity(%) at day 360 (5° C.)", "setting": "[1]; [3]", "result": "97.4 ± 0.3", "unit": "%"},
      {"measurement": "Purity(%) at day 360 (25° C.)", "setting": "[1]; [3]", "result": "92.3 ± 0.3", "unit": "%"},
      {"measurement": "Purity(%) at day 360 (40° C.)", "setting": "[1]; [3]", "result": 0, "unit": "%"},
      {"measurement": "Purity at 3 month", "setting": "[2]; [4]", "result": "98.9 ± 0.3"},
      {"measurement": "Purity at 6 month", "setting": "[2]; [4]", "result": "98.6 ± 0.2"},
      {"measurement": "Purity at 9 month", "setting": "[2]; [4]", "result": "98.6 ± 0.3"},
      {"measurement": "Purity at 12 month", "setting": "[2]; [4]", "result": "98.5 ± 0.2"},
      {"measurement": "Purity at 18 month", "setting": "[2]; [4]", "result": "98.5 ± 0.2"},
      {"measurement": "Purity at 24 month", "setting": "[2]; [4]", "result": "98.4 ± 0.2"},
      {"measurement": "Purity at Day 0", "setting": "[2]; [4]", "result": "98.9 ± 0.1"},
      {"measurement": "Stability of the pure powder", "setting": "[2]; room temperature (25° C./RH 60%)", "result": "very stable"}
    ]}
  ]
}
